For the experiment, the target named is TNFR2 on human cells (Kym-1 cells; human CD3+ T cells) (human) (UniProt P20333). As to the kind of experiment: cell-based or functional assay.
Chain of TNFR2 on human cells (Kym-1 cells; human CD3+ T cells) (human) (P20333 23-461): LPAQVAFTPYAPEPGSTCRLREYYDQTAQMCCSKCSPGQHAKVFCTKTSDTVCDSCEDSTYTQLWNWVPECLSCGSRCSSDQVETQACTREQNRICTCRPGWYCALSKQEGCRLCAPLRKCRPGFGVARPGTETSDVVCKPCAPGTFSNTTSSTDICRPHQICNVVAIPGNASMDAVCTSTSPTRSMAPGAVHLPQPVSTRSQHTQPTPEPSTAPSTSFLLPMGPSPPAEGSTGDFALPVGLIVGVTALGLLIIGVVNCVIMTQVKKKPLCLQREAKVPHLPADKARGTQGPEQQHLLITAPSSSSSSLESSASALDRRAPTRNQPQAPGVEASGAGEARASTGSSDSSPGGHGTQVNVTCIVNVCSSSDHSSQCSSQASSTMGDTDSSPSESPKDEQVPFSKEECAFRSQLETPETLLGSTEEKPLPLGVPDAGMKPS

In turn, scTNFR2-Fc-scTNFR2 (Fc fusion) registered an EC50 of Kym-1 cell viability (crystal violet assay after 16 h) of 8.5 µM.

As to VASP-scTNFR2 (ligand), the EC50 of Kym-1 cell viability (crystal violet assay after 16 h) is 7 µM.

Substance “human single-chain TNF variant (D143N/A145R, scTNFR2) (from UniProt Q8HZD9 77-232) (ligand)” returned an EC50 values (nM) of cell death induction using Kym-1 cells of 0.347 nM.

Values taken from patent US20210395323A1.
